Assay results as given in CN101300273A.

Legend:
人肿瘤细胞上的TR-2 (human) [1] = target: 人肿瘤细胞上的TR-2 (human) (UniProt O14763); experiment: cell-based or functional assay
人肿瘤细胞上的TR-2 (human) [2] = target: 人肿瘤细胞上的TR-2 (human) (UniProt O14763); experiment: cell-based assay, 10 μg/ml M412, anti-mouse IgG Fc-HRP, isotype control subtracted; CNS cancer line U251
人肿瘤细胞上的TR-2 (human) [3] = target: 人肿瘤细胞上的TR-2 (human) (UniProt O14763); experiment: cell-based assay, 10 μg/ml M412, anti-mouse IgG Fc-HRP, isotype control subtracted; lung cancer line A549
人肿瘤细胞上的TR-2 (human) [4] = target: 人肿瘤细胞上的TR-2 (human) (UniProt O14763); experiment: cell-based assay, 10 μg/ml M412, anti-mouse IgG Fc-HRP, isotype control subtracted; melanoma line UACC-62
人肿瘤细胞上的TR-2 (human) [5] = target: 人肿瘤细胞上的TR-2 (human) (UniProt O14763); experiment: cell-based assay, 10 μg/ml M412, anti-mouse IgG Fc-HRP, isotype control subtracted; CNS cancer line SF-295
人肿瘤细胞上的TR-2 (human) [6] = target: 人肿瘤细胞上的TR-2 (human) (UniProt O14763); experiment: cell-based assay, 10 μg/ml M412, anti-mouse IgG Fc-HRP, isotype control subtracted; melanoma line LOX IMVI
人肿瘤细胞上的TR-2 (human) [7] = target: 人肿瘤细胞上的TR-2 (human) (UniProt O14763); experiment: cell-based assay, 10 μg/ml M412, anti-mouse IgG Fc-HRP, isotype control subtracted; colon cancer line HT-29
人肿瘤细胞上的TR-2 (human) [8] = target: 人肿瘤细胞上的TR-2 (human) (UniProt O14763); experiment: cell-based assay, 10 μg/ml M412, anti-mouse IgG Fc-HRP, isotype control subtracted; colon cancer line KM-12
人肿瘤细胞上的TR-2 (human) [9] = target: 人肿瘤细胞上的TR-2 (human) (UniProt O14763); experiment: cell-based assay, 10 μg/ml M412, anti-mouse IgG Fc-HRP, isotype control subtracted; melanoma line RPMI 7951
人肿瘤细胞上的TR-2 (human) [10] = target: 人肿瘤细胞上的TR-2 (human) (UniProt O14763); experiment: cell-based assay, 10 μg/ml M412, anti-mouse IgG Fc-HRP, isotype control subtracted; breast cancer line T-47D
人肿瘤细胞上的TR-2 (human) [11] = target: 人肿瘤细胞上的TR-2 (human) (UniProt O14763); experiment: cell-based assay, 10 μg/ml M412, anti-mouse IgG Fc-HRP, isotype control subtracted; colon cancer line SW-707
人肿瘤细胞上的TR-2 (human) [12] = target: 人肿瘤细胞上的TR-2 (human) (UniProt O14763); experiment: cell-based assay, 10 μg/ml M412, anti-mouse IgG Fc-HRP, isotype control subtracted; colon cancer line SW-948
人肿瘤细胞上的TR-2 (human) [13] = target: 人肿瘤细胞上的TR-2 (human) (UniProt O14763); experiment: cell-based assay, 10 μg/ml M412, anti-mouse IgG Fc-HRP, isotype control subtracted; kidney cancer line SN12C
人肿瘤细胞上的TR-2 (human) [14] = target: 人肿瘤细胞上的TR-2 (human) (UniProt O14763); experiment: cell-based assay, 10 μg/ml M412, anti-mouse IgG Fc-HRP, isotype control subtracted; kidney cancer line UO-31
人肿瘤细胞上的TR-2 (human) [15] = target: 人肿瘤细胞上的TR-2 (human) (UniProt O14763); experiment: cell-based assay, 10 μg/ml M412, anti-mouse IgG Fc-HRP, isotype control subtracted; colon cancer line HCT-116
人肿瘤细胞上的TR-2 (human) [16] = target: 人肿瘤细胞上的TR-2 (human) (UniProt O14763); experiment: cell-based assay, 10 μg/ml M412, anti-mouse IgG Fc-HRP, isotype control subtracted; kidney cancer line Caki-1
人肿瘤细胞上的TR-2 (human) [17] = target: 人肿瘤细胞上的TR-2 (human) (UniProt O14763); experiment: cell-based assay, 10 μg/ml M412, anti-mouse IgG Fc-HRP, isotype control subtracted; kidney cancer line Caki-2
人肿瘤细胞上的TR-2 (human) [18] = target: 人肿瘤细胞上的TR-2 (human) (UniProt O14763); experiment: cell-based assay, 10 μg/ml M412, anti-mouse IgG Fc-HRP, isotype control subtracted; colon cancer line HCC-2998
人肿瘤细胞上的TR-2 (human) [19] = target: 人肿瘤细胞上的TR-2 (human) (UniProt O14763); experiment: cell-based assay, 10 μg/ml M412, anti-mouse IgG Fc-HRP, isotype control subtracted; ovarian cancer line IGROV1
人肿瘤细胞上的TR-2 (human) [20] = target: 人肿瘤细胞上的TR-2 (human) (UniProt O14763); experiment: cell-based assay, 10 μg/ml M412, anti-mouse IgG Fc-HRP, isotype control subtracted; prostate cancer line 22Rv1
人肿瘤细胞上的TR-2 (human) [21] = target: 人肿瘤细胞上的TR-2 (human) (UniProt O14763); experiment: cell-based assay, 10 μg/ml M412, anti-mouse IgG Fc-HRP, isotype control subtracted; prostate cancer line LNCaP
人肿瘤细胞上的TR-2 (human) [22] = target: 人肿瘤细胞上的TR-2 (human) (UniProt O14763); experiment: cell-based assay, 10 μg/ml M412, anti-mouse IgG Fc-HRP, isotype control subtracted; breast cancer line HS 578.T
人肿瘤细胞上的TR-2 (human) [23] = target: 人肿瘤细胞上的TR-2 (human) (UniProt O14763); experiment: cell-based assay, 10 μg/ml M412, anti-mouse IgG Fc-HRP, isotype control subtracted; liver cancer line NCI-SNU-1
人肿瘤细胞上的TR-2 (human) [24] = target: 人肿瘤细胞上的TR-2 (human) (UniProt O14763); experiment: cell-based assay, 10 μg/ml M412, anti-mouse IgG Fc-HRP, isotype control subtracted; prostate cancer line DU 145
人肿瘤细胞上的TR-2 (human) [25] = target: 人肿瘤细胞上的TR-2 (human) (UniProt O14763); experiment: cell-based assay, 10 μg/ml M412, anti-mouse IgG Fc-HRP, isotype control subtracted; breast cancer line MDA-MB-231
人肿瘤细胞上的TR-2 (human) [26] = target: 人肿瘤细胞上的TR-2 (human) (UniProt O14763); experiment: cell-based assay, 10 μg/ml M412, anti-mouse IgG Fc-HRP, isotype control subtracted; line A 673 (listed under leukemia)
人肿瘤细胞上的TR-2 (human) [27] = target: 人肿瘤细胞上的TR-2 (human) (UniProt O14763); experiment: cell-based assay, 10 μg/ml M412, anti-mouse IgG Fc-HRP, isotype control subtracted; non-small cell lung cancer line NCI-H460
人肿瘤细胞上的TR-2 (human) [28] = target: 人肿瘤细胞上的TR-2 (human) (UniProt O14763); experiment: cell-based assay, 10 μg/ml M412, anti-mouse IgG Fc-HRP, isotype control subtracted; non-small cell lung cancer line NCI-H2126
人肿瘤细胞上的TR-2 (human) [29] = target: 人肿瘤细胞上的TR-2 (human) (UniProt O14763); experiment: cell-based assay, 10 μg/ml M412, anti-mouse IgG Fc-HRP, isotype control subtracted; non-small cell lung cancer line HOP-62 (first mention)
人肿瘤细胞上的TR-2 (human) [30] = target: 人肿瘤细胞上的TR-2 (human) (UniProt O14763); experiment: cell-based assay, 10 μg/ml M412, anti-mouse IgG Fc-HRP, isotype control subtracted; non-small cell lung cancer line HOP-62 (second mention)

Chain of UniProt O14763 (O14763 56-440): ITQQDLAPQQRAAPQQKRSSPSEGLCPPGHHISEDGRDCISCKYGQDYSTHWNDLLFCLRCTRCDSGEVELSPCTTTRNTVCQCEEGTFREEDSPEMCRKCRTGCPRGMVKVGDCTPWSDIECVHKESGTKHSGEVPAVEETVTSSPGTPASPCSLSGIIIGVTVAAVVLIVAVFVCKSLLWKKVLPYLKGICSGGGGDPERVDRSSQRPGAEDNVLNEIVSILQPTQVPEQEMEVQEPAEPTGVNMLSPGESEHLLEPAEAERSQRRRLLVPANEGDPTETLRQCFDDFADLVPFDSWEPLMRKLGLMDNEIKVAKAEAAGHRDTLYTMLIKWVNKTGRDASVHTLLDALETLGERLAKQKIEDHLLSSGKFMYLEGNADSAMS

B1: 小鼠抗TR-2抗体M412 (antibody, mouse IgG1, V domains shown)
VH: KVQLQQSGTELVKPGASVKLSCKASGYTFTEYIIHWVKQRSGQGLEWIGWFYPGSGYIKYNEKFKDKATMTADKSSSTVYMELSRLTSEDSAVYFCTRHEEDGYYAAYWGQGTLVTVSA
VL: DIVMTQSHKFMSTSVGDRVSITCKASQDVSSAVAWYQQKPGQSPKLLIYWASTRHTGVPDRFTGSGSGTDYTLTISSVQAEDLALYYCQQHYSTPYTFGGGTKLEIKR
ED50 (细胞存活减少50%, 3H-胸苷掺入), COLO 205细胞 (人肿瘤细胞上的TR-2 (human) [1]): 1.85 mg/L
ED50 (细胞存活减少50%, 3H-胸苷掺入), MDA-231细胞 (人肿瘤细胞上的TR-2 (human) [1]): 0.6 mg/L
ED50 (细胞存活减少50%, 3H-胸苷掺入), WM35细胞 (人肿瘤细胞上的TR-2 (human) [1]): 1.85 mg/L
ED50 (细胞存活减少50%, 3H-胸苷掺入), WM793细胞 (人肿瘤细胞上的TR-2 (human) [1]): 1.85 mg/L
OD450nm (人肿瘤细胞上的TR-2 (human) [2]): 0.323 OD450
OD450nm (人肿瘤细胞上的TR-2 (human) [3]): 0.381 OD450
OD450nm (人肿瘤细胞上的TR-2 (human) [4]): 0.319 OD450
OD450nm (人肿瘤细胞上的TR-2 (human) [5]): 0.354 OD450
OD450nm (人肿瘤细胞上的TR-2 (human) [6]): 0.573 OD450
OD450nm (人肿瘤细胞上的TR-2 (human) [7]): 0.869 OD450
OD450nm (人肿瘤细胞上的TR-2 (human) [8]): 0.77 OD450
OD450nm (人肿瘤细胞上的TR-2 (human) [9]): 0.322 OD450
OD450nm (人肿瘤细胞上的TR-2 (human) [10]): 0.366 OD450
OD450nm (人肿瘤细胞上的TR-2 (human) [11]): 0.323 OD450
OD450nm (人肿瘤细胞上的TR-2 (human) [12]): 0.423 OD450
OD450nm (人肿瘤细胞上的TR-2 (human) [13]): 0.313 OD450
OD450nm (人肿瘤细胞上的TR-2 (human) [14]): 0.331 OD450
OD450nm (人肿瘤细胞上的TR-2 (human) [15]): 0.41 OD450
OD450nm (人肿瘤细胞上的TR-2 (human) [16]): 0.93 OD450
OD450nm (人肿瘤细胞上的TR-2 (human) [17]): 0.443 OD450
OD450nm (人肿瘤细胞上的TR-2 (human) [18]): 0.635 OD450
OD450nm (人肿瘤细胞上的TR-2 (human) [19]): 0.312 OD450
OD450nm (人肿瘤细胞上的TR-2 (human) [20]): 0.301 OD450
OD450nm (人肿瘤细胞上的TR-2 (human) [21]): 0.63 OD450
OD450nm (人肿瘤细胞上的TR-2 (human) [22]): 0.403 OD450
OD450nm (人肿瘤细胞上的TR-2 (human) [23]): 0.354 OD450
OD450nm (人肿瘤细胞上的TR-2 (human) [24]): 0.372 OD450
OD450nm (人肿瘤细胞上的TR-2 (human) [25]): 0.408 OD450
OD450nm (人肿瘤细胞上的TR-2 (human) [26]): 0.347 OD450
OD450nm (人肿瘤细胞上的TR-2 (human) [27]): 0.326 OD450
OD450nm (人肿瘤细胞上的TR-2 (human) [28]): 0.501 OD450
OD450nm (人肿瘤细胞上的TR-2 (human) [29]): 0.313 OD450
OD450nm (人肿瘤细胞上的TR-2 (human) [30]): 0.47 OD450
